The numbers were not newly measured in patent US20150177237, which cites them from elsewhere.

The target of this data set is thrombin (UniProt P00734+P00734). The conditions noted are these: n positions 6-20 are abasic (x); CITED known Kd of thrombin for its aptamer; nanopore event ratios at 10-1000 nM thrombin closely match theory from this Kd; 1 M KCl, 10 mM Tris pH 7.5.

In general, Kd refers to the free concentration of one partner at which half of the binding sites on the other are occupied at equilibrium, for simple one-to-one binding. As to “AAAAANNNNNNNNNNNNNNNAAAAAAAAAAGGTTGGTGTGGTTGG [5A15x10A_TBA]”, the dissociation constant Kd was 50 nM.
